Measured values from publication PMC9508819, “Rbp95 binds to 25S rRNA helix H95 and cooperates with the Npa1 complex during early pre-60S particle maturation”.

What was measured:
[1] = target: T1, Rbp95 full length (Saccharomyces cerevisiae, UniProt P25617 1-290); assay: EMSA; 5 nM RNA; shift starts at 1.5-fold excess of Rbp95; EMSA: 25 mM Tris-HCl pH 7.5, 75 mM NaCl, 2.5 mM MgCl2, 3.5% glycerol, 0.025% Tween 20, 0.5 mM DTT, 5 nM Cy5-RNA, 30 min at RT; 4-20% TBE gel; settings: protein: recombinant; tags: N-terminal His6; label: 5'-Cy5; hairpin
T1 sequence: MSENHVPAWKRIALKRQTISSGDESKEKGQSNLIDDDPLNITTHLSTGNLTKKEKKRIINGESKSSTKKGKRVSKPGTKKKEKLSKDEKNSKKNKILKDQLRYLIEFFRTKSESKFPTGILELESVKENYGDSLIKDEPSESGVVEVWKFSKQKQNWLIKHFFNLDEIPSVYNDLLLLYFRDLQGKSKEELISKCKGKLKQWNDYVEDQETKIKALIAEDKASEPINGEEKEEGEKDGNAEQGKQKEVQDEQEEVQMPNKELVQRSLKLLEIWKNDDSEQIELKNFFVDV

[2] = target: T2, Rbp95 183-end (Saccharomyces cerevisiae, UniProt P25617 183-290); assay: EMSA; 100- or 500-fold excess; not sufficient for binding; EMSA: 25 mM Tris-HCl pH 7.5, 75 mM NaCl, 2.5 mM MgCl2, 3.5% glycerol, 0.025% Tween 20, 0.5 mM DTT, 5 nM Cy5-RNA, 30 min at RT; 4-20% TBE gel; settings: protein: recombinant; tags: N-terminal His6; label: 5'-Cy5; hairpin
T2 sequence: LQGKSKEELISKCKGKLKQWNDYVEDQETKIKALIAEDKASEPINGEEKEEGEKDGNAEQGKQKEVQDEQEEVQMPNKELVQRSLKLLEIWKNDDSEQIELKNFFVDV

[3] = target: T3, Rbp95 1-85 (Saccharomyces cerevisiae, UniProt P25617 1-85); assay: EMSA; 100- or 500-fold excess; strong shift, slightly more protein needed than full length; EMSA: 25 mM Tris-HCl pH 7.5, 75 mM NaCl, 2.5 mM MgCl2, 3.5% glycerol, 0.025% Tween 20, 0.5 mM DTT, 5 nM Cy5-RNA, 30 min at RT; 4-20% TBE gel; settings: protein: recombinant; tags: N-terminal His6; label: 5'-Cy5; hairpin
T3 sequence: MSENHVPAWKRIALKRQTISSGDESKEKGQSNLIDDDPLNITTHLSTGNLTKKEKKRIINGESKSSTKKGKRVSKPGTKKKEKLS

[4] = target: T1, Rbp95 full length; assay: EMSA; 5 nM RNA; shift starts at 1.5-fold excess; similar to H95; EMSA: 25 mM Tris-HCl pH 7.5, 75 mM NaCl, 2.5 mM MgCl2, 3.5% glycerol, 0.025% Tween 20, 0.5 mM DTT, 5 nM Cy5-RNA, 30 min at RT; 4-20% TBE gel; settings: protein: recombinant; tags: N-terminal His6; label: 5'-Cy5; hairpin
[5] = target: T1, Rbp95 full length; assay: competition; 20-100-fold excess over Cy5-H95; reverts shift; EMSA: 25 mM Tris-HCl pH 7.5, 75 mM NaCl, 2.5 mM MgCl2, 3.5% glycerol, 0.025% Tween 20, 0.5 mM DTT, 5 nM Cy5-RNA, 30 min at RT; 4-20% TBE gel; settings: protein: recombinant; tags: N-terminal His6; hairpin

AAAGGGAAUUGAACUUAGUACGAGAGGAACAGUUCAUUUCCC (structured_RNA) [helix H95 (25S rRNA)]: binds [1]; no binding [2]; binds [3].

AAAGGGCGUCAGGGUUGAUAUGAUGCCCUGACGCCC (structured_RNA) [helix H45 (25S rRNA)]: binds [4].

AAAGGGAAUUGAACUUAGUACGAGAGGAACAGUUCAUUUCCC (structured_RNA) [helix H95 unlabeled competitor]: binds [5].
